Assays:
[1] = target: EGF456 (TM456) component of the thrombin-thrombomodulin fusion proteins (human) (UniProt P07204)
[2] = target: fragment TM456 of human thrombomodulin (soluble EGF456 domains) (human) (UniProt P07204); experiment: SPR; biotinyl-TM456 on a neutravidin-coated CM5 chip (177 RU); thrombin injected at 30 μl/min, contact and dissociation 120 sec; 25 °C; Biacore-S200; TM456 loaded in 10 mM HEPES pH 7.4, 150 mM NaCl, 2.5 mM Ca2+, 0.05% Tween20; Kd from response units at the steady state
[3] = target: fragment TM456 of human thrombomodulin (soluble EGF456 domains) (human) (UniProt P07204)
[4] = target: Full-length rabbit thrombomodulin (TM) (rabbit)

thrombin W215A/E217A (WE) component of the fusion protein FP31WE (domain or fragment)
kcat/KM of protein C activation by FP31WE (thrombin WE fused to EGF456, 31-residue linker) [1]: 550 M⁻¹ s⁻¹

thrombin double mutant W215A/E217A (WE) (enzyme)
Kd [2]: 31 nM | kcat/KM of protein C activation by thrombin WE with 500 nM TM456 [3]: 380 M⁻¹ s⁻¹

thrombin mutant W215A (enzyme)
kcat/KM of protein C activation by FP31W215A (thrombin W215A fused to EGF456, 31-residue linker) [1]: 3300 M⁻¹ s⁻¹ | Kd [2]: 23 nM | kcat/KM of protein C activation by thrombin W215A with 500 nM TM456 [3]: 3200 M⁻¹ s⁻¹

thrombin wild-type (enzyme)
kcat/KM of cleavage of the PAR1 fragment by FP7 (thrombin fused to TM456, 7-residue linker) [1]: 5.8e+06 M⁻¹ s⁻¹ | kcat/KM of cleavage of the PAR1 fragment by FP17 (thrombin fused to TM456, 17-residue linker) [1]: 2e+06 M⁻¹ s⁻¹ | kcat/KM of cleavage of the PAR1 fragment by FP31 (thrombin fused to TM456, 31-residue linker) [1]: 300000 M⁻¹ s⁻¹ | kcat/KM of cleavage of the PAR1 fragment by FP41 (thrombin fused to TM456, 41-residue linker) [1]: 950000 M⁻¹ s⁻¹ | kcat/KM of cleavage of the PAR1 fragment by FP55 (thrombin fused to TM456, 55-residue linker) [1]: 2.3e+06 M⁻¹ s⁻¹ | kcat/KM of cleavage of the PAR1 fragment by FP69 (thrombin fused to TM456, 69-residue linker) [1]: 1.4e+07 M⁻¹ s⁻¹ | kcat/KM of fibrinopeptide A release by FP7 (thrombin fused to TM456, 7-residue linker) [1]: 6.7e+06 M⁻¹ s⁻¹ | kcat/KM of fibrinopeptide A release by FP17 (thrombin fused to TM456, 17-residue linker) [1]: 1.55e+06 M⁻¹ s⁻¹ | kcat/KM of fibrinopeptide A release by FP31 (thrombin fused to TM456, 31-residue linker) [1]: 300000 M⁻¹ s⁻¹ | kcat/KM of fibrinopeptide A release by FP41 (thrombin fused to TM456, 41-residue linker) [1]: 600000 M⁻¹ s⁻¹ | kcat/KM of fibrinopeptide A release by FP55 (thrombin fused to TM456, 55-residue linker) [1]: 1.3e+06 M⁻¹ s⁻¹ | kcat/KM of fibrinopeptide A release by FP69 (thrombin fused to TM456, 69-residue linker) [1]: 1.1e+07 M⁻¹ s⁻¹ | kcat/KM of protein C activation by FP7 (thrombin fused to TM456, 7-residue linker) [1]: 1100 M⁻¹ s⁻¹ | kcat/KM of protein C activation by FP17 (thrombin fused to TM456, 17-residue linker) [1]: 6100 M⁻¹ s⁻¹ | kcat/KM of protein C activation by FP31 (thrombin fused to TM456, 31-residue linker) [1]: 85000 M⁻¹ s⁻¹ | kcat/KM of protein C activation by FP41 (thrombin fused to TM456, 41-residue linker) [1]: 107000 M⁻¹ s⁻¹ | kcat/KM of protein C activation by FP55 (thrombin fused to TM456, 55-residue linker) [1]: 120000 M⁻¹ s⁻¹ | kcat/KM of protein C activation by FP69 (thrombin fused to TM456, 69-residue linker) [1]: 74000 M⁻¹ s⁻¹ | Kd [2]: 18 nM | kcat/KM of protein C activation by thrombin with 500 nM TM456 [3]: 80000 M⁻¹ s⁻¹ | kcat/KM of protein C activation by thrombin with TM [4]: 230000 M⁻¹ s⁻¹
